According to patent US20040146896A1, “Methods and compositions for diagnosing and treating companion animal cancer” (priority 2002, published 2004):

What was measured:
[1] = tested on: isolated human heptocytes; settings: literature (Jo et al. 2000); cited from earlier work
[2] = tested on: non-human hepatocytes; settings: literature (Jo et al. 2000); cited from earlier work
[3] = tested on: U937 human tumor cells; experiment: Cell Death Detection ELISA apoptosis assay, U937; type: cell-based; settings: mammalian expressed TRAIL supernatants; commercial human TRAIL and Fas ligand 100 ng/ml (FIGS. 19B, 20B, 21B)
Procedure: 4. Cell Death Detection ELISA Plus assay for apoptosis. The assay is based on a quantitative sandwich-enzyme-immunoassay-principle using mouse monoclonal antibodies directed against DNA and histones, respectively. This allows the specific determination of mono- and oligonucleosomes in the cytoplasmatic fraction of cell lysates. Roche kit, Cat. # 1 774 425, was used for this assay. 0.1 ml of U937 or any other types of cells (2×104 ) and 0.1 ml of tissue culture supernatant or other solutions containing apoptosis inducing agents (e.g. TRAIL) were used for this assay in 48-well plate. After 24 or 48 hrs of incubation at 3 7° C., the cells were spun at 2,000 rpm for 10 minutes. Cell pellet was then resuspended in 200 ul lysis buffer and incubated for 30 minutes at room temperature. The cell lysate was then centrifuged at 2,000 rpm for 10 minutes and diluted at 1:10 with incubation buffer. 20 ul of diluted lysate was added to coated plate (MTP from kit) and 80 ul of the immunoreagent was added to each well. MTP was then covered with adhesive cover foil and incubated under gentle shaking for 2 hours at room temperature. The solution was then removed thoroughly by tapping and subsequently rinsed 3 times with 250 ul incubation buffer. 100 ul ABTS solution was added and incubated on a plate shaker at 250 rpm for 15 minutes. Readings at 405 nm and 490 nm (background) were done on ELISA reader. […]

[4] = tested on: Normal dog hepatocytes; experiment: Cell Death ELISA apoptosis assay, normal dog hepatocytes; type: cell-based; settings: mammalian expressed TRAIL supernatants; Fas ligand 100 ng/ml (FIG. 21B)
Procedure: 4. Cell Death Detection ELISA Plus assay for apoptosis. The assay is based on a quantitative sandwich-enzyme-immunoassay-principle using mouse monoclonal antibodies directed against DNA and histones, respectively. This allows the specific determination of mono- and oligonucleosomes in the cytoplasmatic fraction of cell lysates. Roche kit, Cat. # 1 774 425, was used for this assay. 0.1 ml of U937 or any other types of cells (2×104 ) and 0.1 ml of tissue culture supernatant or other solutions containing apoptosis inducing agents (e.g. TRAIL) were used for this assay in 48-well plate. After 24 or 48 hrs of incubation at 3 7° C., the cells were spun at 2,000 rpm for 10 minutes. Cell pellet was then resuspended in 200 ul lysis buffer and incubated for 30 minutes at room temperature. The cell lysate was then centrifuged at 2,000 rpm for 10 minutes and diluted at 1:10 with incubation buffer. 20 ul of diluted lysate was added to coated plate (MTP from kit) and 80 ul of the immunoreagent was added to each well. MTP was then covered with adhesive cover foil and incubated under gentle shaking for 2 hours at room temperature. The solution was then removed thoroughly by tapping and subsequently rinsed 3 times with 250 ul incubation buffer. 100 ul ABTS solution was added and incubated on a plate shaker at 250 rpm for 15 minutes. Readings at 405 nm and 490 nm (background) were done on ELISA reader.
3. […]

[5] = tested on: hepatocyte; settings: literature (Lawrence et al. 2001); cited from earlier work
[6] = tested on: various tumor cell lines; settings: literature (Walczak 1999; Wiley 1995; Pitti 1996); cited from earlier work
[7] = tested on: human tumors; settings: mice and nonhuman primates; literature (Walczak 1999; Ashkenazi 1999); cited from earlier work
[8] = tested on: nontransformed, normal cells; settings: literature (Walczak 1999; Wiley 1995; Pitti 1996); cited from earlier work

Question: With “polyhistidine-tagged recombinant human TRAIL (residues 114-281): polyhistidine-tagged recombinant human TRAIL (residues 114-281), Jo et al. 2000” as the substance, how does the “apoptosis in vitro in isolated human hepatocytes” value [1] read?
Answer: induce apoptosis

Question: What about the “apoptosis in vitro in non-human hepatocytes” value [2] of the same substance?
Answer: not in non-human hepatocytes

Question: For “Fas ligand: Fas ligand (100 ng/ml, Upstate Biotechnology), control; well known agent which causes liver toxicity in vivo [reference compound]”, which “induction of apoptosis of U937 cells, in words” value [3] is on record?
Answer: sensitive

Question: What about the “apoptosis of normal dog hepatocytes, in words” value [4] of the same substance?
Answer: very sensitive

Question: For “His-tagged TRAIL: His-tagged recombinant TRAIL version, Lawrence et al. 2001”, which “hepatocyte toxicity (apoptosis) of recombinant TRAIL versions” value [5] is on record?
Answer: induced substantial apoptosis

Question: Which “apoptosis in various tumor cell lines” value [6] does the source give for “TRAIL protein: TNF-related apoptosis-inducing ligand as reported in the literature” here?
Answer: induce apoptosis

Question: And the “apoptosis in human tumors after administration of TRAIL” value [7]?
Answer: can induce apoptosis in human tumors

Question: What about the “cytotoxicity in normal organs or tissues” value [7] of the same substance?
Answer: no cytotoxicity

Question: What about the “apoptosis in nontransformed, normal cells” value [8] of the same substance?
Answer: not in nontransformed, normal cells

Question: With “native form of soluble TRAIL protein: native form of soluble TRAIL protein, Lawrence et al. 2001” as the substance, how does the “hepatocyte toxicity (apoptosis) of recombinant TRAIL versions” value [5] read?
Answer: no effect
